Experimental findings from PMC3558466, “An Enzyme-Catalyzed Multistep DNA Refolding Mechanism in Hairpin Telomere Formation” (PLoS Biology, 2013) are described below.

This data set deals with the molecule itself. As to the kind of experiment: crystal structure; TelA-DNA complexes (equal moles of protein monomer and DNA half-site), hanging drop vapor diffusion at 20°C, 5% PEG 4000, 10 mM Tris-HCl pH 7.4, 300 mM NaCl; one TelA per asymmetric unit, the dimer is generated by the crystallographic dyad; TelA is bound to DNA.

Residue numbers refer to the chain shown, from its start.

B1: Selenomethionine-labeled TelA (enzyme, Agrobacterium tumefaciens C58, UniProt Q7CWV1 1-442, looked up)
chain: MLAAKRKTKTPVLVERIDQFVGQIKEAMKSDDASRNRKIRDLWDAEVRYHFDNGRTEKTLELYIMKYRNALKAEFGPKSTPLAICNMKKLRERLNTYIARGDYPKTGVATSIVEKIERAEFNTAGRKPTVLLRIADFIAAMNGMDAKQDMQALWDAEIAIMNGRAQTTIISYITKYRNAIREAFGDDHPMLKIATGDAAMYDEARRVKMEKIANKHGALITFENYRQVLKICEDCLKSSDPLMIGIGLIGMTGRRPYEVFTQAEFSPAPYGKGVSKWSILFNGQAKTKQGEGTKFGITYEIPVLTRSETVLAAYKRLRESGQGKLWHGMSIDDFSSETRLLLRDTVFNLFEDVWPKEELPKPYGLRHLYAEVAYHNFAPPHVTKNSYFAAILGHNNNDLETSLSYMTYTLPEDRDNALARLKRTNERTLQQMATIAPVSRKG
modifications: selenomethionine-labeled (eleven selenium sites per TelA monomer located)
notes: Protelomerase TelA, Agrobacterium tumefaciens C58, gene locus Atu_2523, full-length 442 residues; model covers residues 102-421; Phosphotyrosine complex trapped with the nicked suicide substrate DNAc; used for SAD phasing; also called SeMet-TelA; source: E. coli methionine auxotroph strain B834(DE3), selenomethionine-labeled; not shown: His-tag (20 residues), N-terminal, kept
What is called stoichiometry N is a count of units in the complex or per binding partner. As to B1, the “stoichiometry N” value stood at 2.

B2: TelA Y201A (enzyme)
chain: B1 chain with Y201A
notes: Crystallised with DNAb; source: E. coli BL21, pBAD promoter, purified (Ni-NTA, Heparin-Sepharose)
On to B2, for which the “stoichiometry N” value was found to be 2.

B3: TelA R205A (enzyme)
chain: B1 chain with R205A
notes: Crystallised with DNAb6; source: E. coli BL21, pBAD promoter, purified (Ni-NTA, Heparin-Sepharose)
On to B3, for which the “stoichiometry N” value was 2.

B4: TelA R255A (enzyme)
chain: B1 chain with R255A
notes: source: E. coli BL21, pBAD promoter, purified (Ni-NTA, Heparin-Sepharose)
B4: the “stoichiometry N” value was found to be 2.

B5: TelA, protelomerase from Agrobacterium tumefaciens C58, wild type (enzyme, UniProt Q7CWV1 1-442, looked up)
chain: B1 chain
notes: Protelomerase TelA, Agrobacterium tumefaciens C58, gene locus Atu_2523, full-length 442 residues; residues 102-421 ordered in the crystal models; In 4E0P and 4E0Y Tyr405 is joined to the cleaved DNA by a phosphotyrosine bond; in 4E0G orthovanadate bridges Tyr405 and the DNA ends; also called telomere resolvase; wild-type TelA; source: E. coli BL21, pBAD promoter, purified (Ni-NTA, …)
As to B5, the “stoichiometry N” value turned out to be 2.
